Percent decrease in binding compared to wild-type RIG-I data for 1 substance are collected here from publication PMC11111093.

The target in this assay is HA-ADAP (UniProt O15117). Briefly: co-IP; HEK293T co-transfected with HA-ADAP and Flag-RIG-I or Flag-tagged RIG-I truncations, lysates 48 h after transfection; anti-HA immunoprecipitation, anti-Flag blot.
UniProt O15117, sequence (O15117 whole entry, the tested form may be a part): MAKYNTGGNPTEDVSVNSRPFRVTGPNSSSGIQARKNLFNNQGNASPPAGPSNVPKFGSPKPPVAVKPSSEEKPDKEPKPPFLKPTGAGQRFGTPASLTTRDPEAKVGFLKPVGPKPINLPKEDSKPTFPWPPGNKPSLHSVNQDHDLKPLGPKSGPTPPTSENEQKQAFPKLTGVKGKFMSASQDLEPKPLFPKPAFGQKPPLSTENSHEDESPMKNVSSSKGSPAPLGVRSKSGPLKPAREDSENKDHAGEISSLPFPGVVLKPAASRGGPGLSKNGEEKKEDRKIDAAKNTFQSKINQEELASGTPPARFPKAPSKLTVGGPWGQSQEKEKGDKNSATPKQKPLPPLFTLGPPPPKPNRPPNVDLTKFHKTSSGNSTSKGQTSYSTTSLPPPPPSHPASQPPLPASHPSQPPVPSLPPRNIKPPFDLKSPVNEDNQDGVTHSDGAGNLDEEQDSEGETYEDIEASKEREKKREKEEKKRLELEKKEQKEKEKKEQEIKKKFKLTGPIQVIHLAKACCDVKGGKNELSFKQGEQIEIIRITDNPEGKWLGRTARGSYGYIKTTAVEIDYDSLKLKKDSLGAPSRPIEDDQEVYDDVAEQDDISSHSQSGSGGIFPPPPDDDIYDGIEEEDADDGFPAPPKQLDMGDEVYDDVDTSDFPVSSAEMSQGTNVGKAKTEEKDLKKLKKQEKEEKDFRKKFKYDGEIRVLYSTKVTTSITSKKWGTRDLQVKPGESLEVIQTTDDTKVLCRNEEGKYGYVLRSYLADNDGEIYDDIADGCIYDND

“Flag-RIG-I helicase domain (aa 239-734) (from UniProt O95786 239-734) (domain or fragment)” displayed a percent decrease in binding compared to wild-type RIG-I of 60%.
